According to article PMC8668187:
Values joined by “and” are separate entries in the source; they are usually repeats but may differ in a detail not shown here. Equal values may be shown once.

Legend:
[1] = target: CsGSIb EVK138DIQ mutant (Camellia sinensis); assay: SEC-MALS; Superdex 200 10/300 GL with MALS and QELS; 50 mM KPi pH 7.0, 100 mM NaCl, 1 mM β-mercaptoethanol, 0.05 % NaN3; room temperature (~23 °C); self-association of the GS
[2] = target: CsGSIb EVK138DIQ mutant (Camellia sinensis)
[3] = target: CsGSIb EVK138DIQ mutant (Camellia sinensis); assay: AUC; sedimentation velocity, 0.1/0.25/0.5 mg/mL, 50 mM Tris-HCl pH 7.4, 100 mM NaCl, 1.5 mM β-mercaptoethanol, rotor at 20 °C (results: room temperature); global fit; decamer to two pentamers
[4] = target: CsGSIb I143L mutant (Camellia sinensis); assay: SEC-MALS; Superdex 200 10/300 GL with MALS and QELS; 50 mM KPi pH 7.0, 100 mM NaCl, 1 mM β-mercaptoethanol, 0.05 % NaN3; room temperature (~23 °C); self-association of the GS
[5] = target: CsGSIb I143L mutant (Camellia sinensis)
[6] = target: CsGSIb I143L mutant (Camellia sinensis); assay: AUC; sedimentation velocity, 0.1/0.25/0.5 mg/mL, 50 mM Tris-HCl pH 7.4, 100 mM NaCl, 1.5 mM β-mercaptoethanol, rotor at 20 °C (results: room temperature); global fit; decamer to two pentamers
[7] = target: glutamine synthetase CsGSIb from Camellia sinensis, wild type (Camellia sinensis); assay: SEC-MALS; Superdex 200 10/300 GL with MALS and QELS; 50 mM KPi pH 7.0, 100 mM NaCl, 1 mM β-mercaptoethanol, 0.05 % NaN3; room temperature (~23 °C); self-association of the GS
[8] = target: glutamine synthetase CsGSIb from Camellia sinensis, wild type (Camellia sinensis)
[9] = target: glutamine synthetase CsGSIb from Camellia sinensis, wild type (Camellia sinensis); assay: AUC; sedimentation velocity, 0.1/0.25/0.5 mg/mL, 50 mM Tris-HCl pH 7.4, 100 mM NaCl, 1.5 mM β-mercaptoethanol, rotor at 20 °C (results: room temperature); global fit; decamer to two pentamers
[10] = target: glutamine synthetase GmGSβ2 from Glycine max (Glycine max); assay: SEC-MALS; Superdex 200 10/300 GL with MALS and QELS; 50 mM KPi pH 7.0, 100 mM NaCl, 1 mM β-mercaptoethanol, 0.05 % NaN3; room temperature (~23 °C); self-association of the GS

For CsGSIb EVK138DIQ mutant (enzyme), the fraction decameric [1] was 72%, the glutamine synthetase activity, increase over wild-type CsGSIb (1 μM monomer enzyme, 30 min, 37 °C) [2] was 64 fold and the Kd [3] was 0.04 µM.
Work on CsGSIb I143L mutant (enzyme) yielded a fraction decameric [4] greater than 95%, a glutamine synthetase activity, increase over wild-type CsGSIb (1 μM monomer enzyme, 30 min, 37 °C) [5] of 76 fold and a Kd [6] of 0.01 µM.
In the case of “glutamine synthetase CsGSIb from Camellia sinensis, wild type (enzyme)”, the fraction decameric [7] is reported as 18%, the fraction pentameric [7] is reported as 82% and the stoichiometry N [7] is reported as 5 and 10. For the same substance, the glutamine synthetase activity on raising the CsGSIb concentration from 1 μM to 5 μM (monomer) [8] was 30 fold, the Kd [9] was 0.27 µM and the stoichiometry N [9] was 10 and 5.
“glutamine synthetase GmGSβ2 from Glycine max (enzyme)” showed a stoichiometry N [10] of 10.
